Earlier results in patent US20220184026A1, “COMPOSITIONS OF FULVIC ACID AND CANNABINOID AND USES THEREOF” (Omni Bioceutical Innovations, Inc., priority 2019, published 2022).
Like-named read-outs stand apart in the source and are kept apart here.

B1: platelet-derived growth factor BB (protein, UniProt P01127 82-190, looked up)
Platelet-derived growth …: SLGSLTIAEPAMIAECKTRTEVFEISRRLIDRTNANFLVWPPCVEVQRCSGCCNNRNVQCRPTQVQLRPVQVRKIEIVRKKPIFKKATVTLEDHLACKCETVAAARPVT
B2: transforming growth factor-β2 (protein, UniProt P61812 303-414, looked up)
Transforming growth factor …: ALDAAYCFRNVQDNCCLRPLYIDFKRDLGWKWIHEPKGYNANFCAGACPYLWSSDTQHSRVLSLYNTINPEASASPCCVSQDLEPLTILYYIGKTPKIEQLSNMIVKSCKCS

Test system: chronic wounds
Set-up: key: N.S. = not statistically significant

| Molecule | Results (Mustoe et al., pressure wounds (n=45), 1 and 3 μg/mL daily) | Results (Robson et al., pressure wounds (n=20), 1, 10, and 100 μg/mL daily) | Results (Robson et al., venous wounds (n=36), 2.5 μg/cm^2 three times per week) |
| --- | --- | --- | --- |
| B1 | N.S. | N.S. | – |
| B2 | – | – | N.S. |
